The record followed here is patent US20200172905, “RNA APTAMERS AGAINST TRANSFERRIN RECEPTOR (TFR)” (CITY OF HOPE, published 2020).

In this data set the target is Transferrin receptor (TfR, TFRC) (UniProt P02786 SEQ:89-760). Nature of the data set: SPR; value only in figure, stated to be in similar range to TR14; Biacore T100, biotinylated aptamer on SA chip, 30 mM Tris-HCl pH 7.5, 150 mM NaCl, 5 mM MgCl2. The settings on record: SELEX was against the extracellular domain; chain copies: 2; label: biotin (SPR), Cy3 (cell imaging). On the procedure: The kinetics of TR14 S1-3 were analysed by surface plasmon resonance (SPR) technology. The Biacore T100 (GE Healthcare, Uppsala, Sweden) was used to monitor label-free the aptamer-transferrin receptor interactions in real time. Biotinylated aptamers were coupled to a streptavidin-coated Biocore chip (SensorChip SA, BR-1003-98, General Electric Company) by an injection in binding buffer at concentration of 25 μg/mL (30 mM Tris-HCl, pH 7.5, 150 mM NaCl, 5 mM MgCl2) at 10 uL/min. The RNA was refolded by heating to 65° C. followed by cooling to 37° C. before immobilization. To measure binding kinetics, five concentrations of purified transferrin receptor protein were injected at a flow rate of 10 uL per minute. After binding, the surface was regenerated by injecting 50 mM NaOH at flow rate of 15 μL per minutes for 20 seconds. Data from the control surface were subtracted. BlAevaluation software (GE Healthcare) was used for analysis. The binding data were fit to a 1:1 binding with a mass transfer model to calculate kinetic parameters.
(In general: SPR reads the build-up and loss of mass on a sensor chip optically.)

Sequence of Transferrin receptor (TfR, TFRC) (P02786 89-760): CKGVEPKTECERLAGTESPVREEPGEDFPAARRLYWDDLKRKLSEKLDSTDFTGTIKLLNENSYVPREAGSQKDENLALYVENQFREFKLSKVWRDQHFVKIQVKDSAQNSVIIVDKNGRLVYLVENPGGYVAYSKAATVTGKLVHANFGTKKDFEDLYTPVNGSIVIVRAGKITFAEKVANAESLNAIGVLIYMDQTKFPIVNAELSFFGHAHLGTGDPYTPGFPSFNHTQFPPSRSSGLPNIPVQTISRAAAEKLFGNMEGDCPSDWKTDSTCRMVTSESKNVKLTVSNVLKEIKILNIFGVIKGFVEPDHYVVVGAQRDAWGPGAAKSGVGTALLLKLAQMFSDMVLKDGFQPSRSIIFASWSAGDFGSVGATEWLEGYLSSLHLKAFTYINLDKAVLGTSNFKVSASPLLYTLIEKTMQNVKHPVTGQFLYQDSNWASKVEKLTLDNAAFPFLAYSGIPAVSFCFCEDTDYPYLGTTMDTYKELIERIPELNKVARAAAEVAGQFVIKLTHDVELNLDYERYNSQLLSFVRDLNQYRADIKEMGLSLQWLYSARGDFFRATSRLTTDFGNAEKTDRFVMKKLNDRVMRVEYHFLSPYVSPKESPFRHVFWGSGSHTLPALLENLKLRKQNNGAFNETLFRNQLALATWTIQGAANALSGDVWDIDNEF

B1: TR14 S1-3 (22-mer) (ssRNA)
RNA: UUUAUUCACAUUUUUGAAUUGA
modifications: 2'-F (library of 2'F RNAs; positions not stated)
Take B1: the binding result is listed as “binds”.
